Source: patent publication US20140271457A1 (AbbVie / Abbott, published 2014)

B1: DVD3218 (bispecific antibody, IgG1)
VH: EVQLVESGGGLVQPGGSLRLSCAASGFSFSKYWLGWVRQAPGKGLEWVSDIYPGYDYTHYNEKFKDRFTISADTSKNTAYLQMNSLRAEDTAVYYCARSDGSSTYWGQGTLVTVSSGGGGSGGGGSEVQLVESGGGLVQPGGSLRLSCAASGFTFSNYGVEWVRQAPGKGLEWVSGIWADGSTHYADTVKSRFTISRDNSKNTLYLQMNSLRAEDTAVYYCAREWQHGPVAYWGQGTLVTVSS
VL: DIQMTQSPSSLSASVGDRVTITCTSSQNIVHSNGNTYLEWYQQKPGKAPKLLIYKVSNRFSGVPSRFSGSGSGTDFTLTISSLQPEDFATYYCFQVSHVPYTFGQGTKVEIKRGGSGGGGSGDIQMTQSPSSLSASVGDRVTITCKASQLVSSAVAWYQQKPGKAPKLLIYWASTLHTGVPSRFSGSGSGTDFTLTISSLQPEDFATYYCQQHYRTPFTFGQGTKLEIKR
B2: DVD3223 (bispecific antibody, IgG1)
VH: EVQLVQSGAEVKKPGASVKVSCKASGYTFANYGIIWVRQAPGQGLEWMGWINTYTGKPTYAQKFQGRVTMTTDTSTSTAYMELSSLRSEDTAVYYCARKLFTTMDVTDNAMDYWGQGTTVTVSSGGGGSGGGGSEVQLVESGGGLVQPGGSLRLSCAASGFSFSKYWLGWVRQAPGKGLEWVSDIYPGYDYTHYNEKFKDRFTISADTSKNTAYLQMNSLRAEDTAVYYCARSDGSSTYWGQGTLVTVSS
VL: DIQMTQSPSSLSASVGDRVTITCRASQDISQYLNWYQQKPGKAPKLLIYYTSRLQSGVPSRFSGSGSGTDFTLTISSLQPEDFATYFCQQGNTWPPTFGQGTKLEIKRGGSGGGGSGDIQMTQSPSSLSASVGDRVTITCTSSQNIVHSNGNTYLEWYQQKPGKAPKLLIYKVSNRFSGVPSRFSGSGSGTDFTLTISSLQPEDFATYYCFQVSHVPYTFGQGTKVEIKR
B3: DVD3219 (bispecific antibody, IgG1)
VH: EVQLVESGGGLVQPGGSLRLSCAASGFSFSKYWLGWVRQAPGKGLEWVSDIYPGYDYTHYNEKFKDRFTISADTSKNTAYLQMNSLRAEDTAVYYCARSDGSSTYWGQGTLVTVSSASTKGPEVQLVESGGGLVQPGGSLRLSCAASGFTFSNYGVEWVRQAPGKGLEWVSGIWADGSTHYADTVKSRFTISRDNSKNTLYLQMNSLRAEDTAVYYCAREWQHGPVAYWGQGTLVTVSS
VL: DIQMTQSPSSLSASVGDRVTITCTSSQNIVHSNGNTYLEWYQQKPGKAPKLLIYKVSNRFSGVPSRFSGSGSGTDFTLTISSLQPEDFATYYCFQVSHVPYTFGQGTKVEIKRTVAAPDIQMTQSPSSLSASVGDRVTITCKASQLVSSAVAWYQQKPGKAPKLLIYWASTLHTGVPSRFSGSGSGTDFTLTISSLQPEDFATYYCQQHYRTPFTFGQGTKLEIKR
B4: DVD3221 (bispecific antibody, IgG1)
VH: B3 VH
VL: DIQMTQSPSSLSASVGDRVTITCTSSQNIVHSNGNTYLEWYQQKPGKAPKLLIYKVSNRFSGVPSRFSGSGSGTDFTLTISSLQPEDFATYYCFQVSHVPYTFGQGTKVEIKRTVAAPSVFIFPPDIQMTQSPSSLSASVGDRVTITCKASQLVSSAVAWYQQKPGKAPKLLIYWASTLHTGVPSRFSGSGSGTDFTLTISSLQPEDFATYYCQQHYRTPFTFGQGTKLEIKR
B5: DVD3222 (bispecific antibody, IgG1)
VH: EVQLVESGGGLVQPGGSLRLSCAASGFSFSKYWLGWVRQAPGKGLEWVSDIYPGYDYTHYNEKFKDRFTISADTSKNTAYLQMNSLRAEDTAVYYCARSDGSSTYWGQGTLVTVSSASTKGPSVFPLAPEVQLVESGGGLVQPGGSLRLSCAASGFTFSNYGVEWVRQAPGKGLEWVSGIWADGSTHYADTVKSRFTISRDNSKNTLYLQMNSLRAEDTAVYYCAREWQHGPVAYWGQGTLVTVSS
VL: B3 VL

Biological target: Recombinant Human TNF-α/TNFSF1A (human, UniProt P01375 77-233)
Sequence (P01375 77-233 limits assumed): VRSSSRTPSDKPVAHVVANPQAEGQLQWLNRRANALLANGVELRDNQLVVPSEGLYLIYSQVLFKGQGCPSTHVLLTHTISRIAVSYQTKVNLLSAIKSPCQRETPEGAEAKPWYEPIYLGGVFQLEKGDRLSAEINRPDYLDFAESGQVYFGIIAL
Experiment: cell-based or functional assay

Row | Binder | C-Terminal VD huTNFα Neutralization Assay IC50 [nM] | N-Terminal VD huTNFα Neutralization Assay IC50 [nM]
1 | B1 | 0.413 | –
2 | B2 | – | 0.002
3 | B3 | 2.1 | –
4 | B4 | 0.479 | –
5 | B5 | 0.243 | –
